Data from patent publication US20020151484A1 (HYBRIGENICS, published 2002).

Assays:
Test in all cases: yeast two-hybrid, mating, His3/LacZ reporters
[1] = molecular target: T1, Bait polypeptide of SEQ ID No 78, Core (100%), HCV strain H77 nt 342-683 (hepatitis C virus strain H77, UniProt P27958 1-113)
T1 construct: also called Bait Core (100%)
T1 sequence: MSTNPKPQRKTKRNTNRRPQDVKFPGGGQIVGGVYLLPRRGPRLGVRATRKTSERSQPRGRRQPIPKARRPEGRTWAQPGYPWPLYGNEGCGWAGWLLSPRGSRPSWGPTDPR

[2] = molecular target: T2, Bait polypeptide of SEQ ID No 100, NS4B (8%)/NS5A (91%), HCV strain H77 nt 6182-7034 (hepatitis C virus strain H77, UniProt P27958 1948-2230)
T2 construct: also called Bait NS4B (8%)/NS5A (91%)
T2 chain: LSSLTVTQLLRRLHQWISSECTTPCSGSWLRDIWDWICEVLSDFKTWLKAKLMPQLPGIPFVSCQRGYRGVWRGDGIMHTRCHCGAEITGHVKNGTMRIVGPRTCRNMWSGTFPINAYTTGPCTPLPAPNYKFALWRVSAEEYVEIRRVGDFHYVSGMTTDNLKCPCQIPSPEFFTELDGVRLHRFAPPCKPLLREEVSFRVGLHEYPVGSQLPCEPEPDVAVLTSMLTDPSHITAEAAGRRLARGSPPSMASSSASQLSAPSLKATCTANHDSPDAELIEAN

[3] = molecular target: T3, SID polypeptide of SEQ ID No 28, NS5A (100%), HCV strain H77 nt 6557-6721 (hepatitis C virus strain H77, UniProt P27958 2073-2125)
T3 construct: Intersection of yeast two-hybrid prey fragments; also called SID NS5A (100%)
T3 sequence: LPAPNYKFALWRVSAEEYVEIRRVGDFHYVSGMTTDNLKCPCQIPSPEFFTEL

[4] = molecular target: T4, Bait polypeptide of SEQ ID No 87, NS3 (100%), HCV strain H77 nt 4238-4857 (hepatitis C virus strain H77, UniProt P27958 1300-1504)
T4 construct: also called Bait NS3 (100%)
T4 chain: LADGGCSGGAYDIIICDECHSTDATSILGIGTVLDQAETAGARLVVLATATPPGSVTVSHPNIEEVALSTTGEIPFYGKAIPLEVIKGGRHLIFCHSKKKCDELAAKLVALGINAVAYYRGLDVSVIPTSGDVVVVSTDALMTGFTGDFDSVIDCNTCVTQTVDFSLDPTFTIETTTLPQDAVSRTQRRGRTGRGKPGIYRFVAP

[5] = molecular target: T5, SID polypeptide of SEQ ID No 16, NS4B (100%), HCV strain H77 nt 5918-6154 (hepatitis C virus strain H77, UniProt P26664 1860-1936)
T5 construct: Intersection of yeast two-hybrid prey fragments; also called SID NS4B (100%)
T5 sequence: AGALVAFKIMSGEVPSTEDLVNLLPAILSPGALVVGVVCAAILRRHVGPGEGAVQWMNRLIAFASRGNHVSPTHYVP

[6] = molecular target: T6, Bait polypeptide of SEQ ID No 97, NS4B (100%), HCV strain H77 nt 6011-6177 (hepatitis C virus strain H77, UniProt O92972 1891-1944)
T6 construct: also called Bait NS4B (100%)
T6 sequence: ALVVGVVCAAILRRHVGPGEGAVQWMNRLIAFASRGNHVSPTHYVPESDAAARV

[7] = molecular target: T7, SID polypeptide of SEQ ID No 23, NS4B (100%), HCV strain H77 nt 5879-6072 (hepatitis C virus strain H77, UniProt Q913V3 1847-1909)
T7 construct: Intersection of yeast two-hybrid prey fragments; also called SID NS4B (100%)
T7 sequence: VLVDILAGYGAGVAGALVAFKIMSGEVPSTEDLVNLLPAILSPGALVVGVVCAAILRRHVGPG

[8] = molecular target: T8, Bait polypeptide of SEQ ID No 96, NS4B (82%)/NS5A(17%), HCV strain H77 nt 5897-6335 (hepatitis C virus strain H77, UniProt P26664 1853-1997)
T8 construct: also called Bait NS4B (82%)/NS5A(17%)
T8 sequence: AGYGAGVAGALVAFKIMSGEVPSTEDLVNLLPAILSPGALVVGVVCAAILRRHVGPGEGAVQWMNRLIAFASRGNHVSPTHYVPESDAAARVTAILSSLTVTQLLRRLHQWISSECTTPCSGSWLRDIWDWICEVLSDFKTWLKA

[9] = molecular target: T9, Bait polypeptide of SEQ ID No 93, NS4B (86%)/NS5A (13%), HCV strain H77 nt 5717-6344 (hepatitis C virus strain H77, UniProt P26664 1793-2000)
T9 construct: also called Bait NS4B (86%)/NS5A (13%)
T9 chain: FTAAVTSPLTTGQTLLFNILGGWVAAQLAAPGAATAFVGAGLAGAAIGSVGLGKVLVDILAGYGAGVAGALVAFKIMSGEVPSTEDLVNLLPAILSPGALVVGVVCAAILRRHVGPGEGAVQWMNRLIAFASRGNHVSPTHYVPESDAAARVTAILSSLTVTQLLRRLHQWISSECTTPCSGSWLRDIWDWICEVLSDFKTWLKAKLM

[10] = molecular target: T10, Bait polypeptide of SEQ ID No 89, NS3 (100%), HCV strain H77 nt 4691-5168 (hepatitis C virus strain H77, UniProt P26664 1451-1608)
T10 construct: also called Bait NS3 (100%)
T10 chain: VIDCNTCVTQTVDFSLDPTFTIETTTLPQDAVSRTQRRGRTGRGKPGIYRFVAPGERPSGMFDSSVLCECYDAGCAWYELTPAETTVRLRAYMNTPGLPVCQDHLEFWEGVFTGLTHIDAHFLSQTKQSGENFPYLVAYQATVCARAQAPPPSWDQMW

[11] = molecular target: T11, Bait polypeptide of SEQ ID No 95, NS4B (55%)/NS5A (44%), HCV strain H77 nt 5882-6562 (hepatitis C virus strain H77, UniProt P26664 1848-2072)
T11 construct: also called Bait NS4B (55%)/NS5A (44%)
T11 chain: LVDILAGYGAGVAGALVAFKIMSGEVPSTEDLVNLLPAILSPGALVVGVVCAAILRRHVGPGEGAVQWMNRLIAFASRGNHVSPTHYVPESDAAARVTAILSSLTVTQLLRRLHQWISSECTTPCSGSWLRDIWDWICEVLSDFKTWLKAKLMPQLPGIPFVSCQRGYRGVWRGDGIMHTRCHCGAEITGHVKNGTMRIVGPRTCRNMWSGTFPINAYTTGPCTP

[12] = molecular target: T12, Bait polypeptide of SEQ ID No 90, NS3 (100%), HCV strain H77 nt 4838-5230 (hepatitis C virus strain H77, UniProt P26664 1500-1628)
T12 construct: also called Bait NS3 (100%)
T12 chain: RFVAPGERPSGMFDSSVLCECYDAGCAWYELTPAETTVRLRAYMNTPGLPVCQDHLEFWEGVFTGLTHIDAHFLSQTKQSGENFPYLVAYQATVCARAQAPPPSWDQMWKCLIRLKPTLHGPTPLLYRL

[13] = molecular target: T13, Bait polypeptide of SEQ ID No 101, NS4B (9%)/NS5A (90%), HCV strain H77 nt 6188-6939 (hepatitis C virus strain H77, UniProt P27958 1950-2198)
T13 construct: also called Bait NS4B (9%)/NS5A (90%)
T13 chain: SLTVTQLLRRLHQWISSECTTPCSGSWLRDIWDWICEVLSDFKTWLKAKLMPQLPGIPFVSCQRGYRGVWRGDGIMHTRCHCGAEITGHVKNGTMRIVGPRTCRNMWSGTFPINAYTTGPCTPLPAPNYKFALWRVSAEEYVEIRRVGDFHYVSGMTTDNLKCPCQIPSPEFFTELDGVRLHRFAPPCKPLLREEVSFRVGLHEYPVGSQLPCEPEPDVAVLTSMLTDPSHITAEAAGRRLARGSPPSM

[14] = molecular target: T14, Bait polypeptide of SEQ ID No 102, NS5A (100%), HCV strain H77 nt 6317-6576 (hepatitis C virus strain H77, UniProt P26664 1993-2077)
T14 construct: also called Bait NS5A (100%)
T14 chain: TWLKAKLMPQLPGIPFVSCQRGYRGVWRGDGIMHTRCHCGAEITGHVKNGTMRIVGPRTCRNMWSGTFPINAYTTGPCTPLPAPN

[15] = molecular target: T15, Bait polypeptide of SEQ ID No 77, Core (87%), HCV strain H77 nt 302-614 (hepatitis C virus strain H77)
T15 construct: also called Bait Core (87%)
T15 chain: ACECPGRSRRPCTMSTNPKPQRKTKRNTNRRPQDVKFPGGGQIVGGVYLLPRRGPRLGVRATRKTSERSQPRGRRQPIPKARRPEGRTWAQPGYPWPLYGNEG

B1: SID polypeptide of SEQ ID No 2, NS3 (100%), HCV strain H77 nt 4814-4922 (other)
chain: GRGKPGIYRFVAPGERPSGMFDSSVLCECYDAGCA
notes: Intersection of yeast two-hybrid prey fragments; also called SID NS3 (100%)
Q: Does B1 bind [1]?
A: binds

B2: SID polypeptide of SEQ ID No 25, E1 (100%), HCV strain H77 nt 1226-1458 (other)
chain: RRHWTTQDCNCSIYPGHITGHRMAWDMMMNWSPTAALVVAQLLRIPQAIMDMIAGAHWGVLAGIAYFSMVGNWAKV
notes: Intersection of yeast two-hybrid prey fragments; also called SID E1 (100%)
Q: Does B2 bind [2]?
A: binds

B3: Bait polypeptide of SEQ ID No 103, NS5A (100%), HCV strain H77 nt 6440-6727 (other)
chain: EITGHVKNGTMRIVGPRTCRNMWSGTFPINAYTTGPCTPLPAPNYKFALWRVSAEEYVEIRRVGDFHYVSGMTTDNLKCPCQIPSPEFFTELDG
notes: also called Bait NS5A (100%)
Q: Does B3 bind [3]?
A: binds

B4: SID polypeptide of SEQ ID No 12, NS5B (100%), HCV strain H77 nt 7979-8109 (other)
chain: not shown
notes: Intersection of yeast two-hybrid prey fragments; also called SID NS5B (100%)
Q: Does B4 bind [4]?
A: binds

B5: SID polypeptide of SEQ ID No 3, Core (100%), HCV strain H77 nt 380-616 (other)
chain: NTNRRPQDVKFPGGGQIVGGVYLLPRRGPRLGVRATRKTSERSQPRGRRQPIPKARRPEGRTWAQPGYPWPLYGNEG
notes: Intersection of yeast two-hybrid prey fragments; also called SID Core (100%)
Q: Does B5 bind [1]?
A: binds

B6: Bait polypeptide of SEQ ID No 91, NS3 (1%)/NS4A (98%), HCV strain H77 nt 5310-5467 (other)
chain: TSTWVLVGGVLAALAAYCLSTGCVVIVGRIVLSGKPAIIPDREVLYQEFDE
notes: also called Bait NS3 (1%)/NS4 A (98%)
Q: Does B6 bind [5]?
A: binds

B7: SID polypeptide of SEQ ID No 22, E2 (100%), HCV strain H77 nt 1823-1955 (other)
chain: GIVPAKSVCGPVYCFTPSPVVVGTTDRSGAPTYSWGANDTDVF
notes: Intersection of yeast two-hybrid prey fragments; also called SID E2 (100%)
Q: Does B7 bind [6]?
A: binds

B8: Bait polypeptide of SEQ ID No 98, NS4B (30%)/NS5A (69%), HCV strain H77 nt 6107-6605 (other)
chain: ASRGNHVSPTHYVPESDAAARVTAILSSLTVTQLLRRLHQWISSECTTPCSGSWLRDIWDWICEVLSDFKTWLKAKLMPQLPGIPFVSCQRGYRGVWRGDGIMHTRCHCGAEITGHVKNGTMRIVGPRTCRNMWSGTFPINAYTTGPCTPLPAPNYKFALWRVSA
notes: also called Bait NS4B (30%)/NS5A (69%)
Q: Does B8 bind [7]?
A: binds

B9: SID polypeptide of SEQ ID No 21, NS4B (100%), HCV strain H77 nt 5819-6080 (other)
chain: TAFVGAGLAGAAIGSVGLGKVLVDILAGYGAGVAGALVAFKIMSGEVPSTEDLVNLLPAILSPGALVVGVVCAAILRRHVGPGEGA
notes: Intersection of yeast two-hybrid prey fragments; also called SID NS4B (100%)
Q: Does B9 bind [8]?
A: binds

B10: SID polypeptide of SEQ ID No 18, NS4B (53%)/NS5A (46%), HCV strain H77 nt 6197-6310 (other)
chain: VTQLLRRLHQWISSECTTPCSGSWLRDIWDWICEVL
notes: Intersection of yeast two-hybrid prey fragments; also called SID NS4B (53%)/NS5A (46%)
Q: Does B10 bind [9]?
A: binds

B11: SID polypeptide of SEQ ID No 14, E2 (100%), HCV strain H77 nt 1784-1888 (other)
chain: ERPYCWHYPPRPCGIVPAKSVCGPVYCFTPSPV
notes: as for B7
Q: Does B11 bind [10]?
A: binds

B12: SID polypeptide of SEQ ID No 20, NS5B (100%), HCV strain H77 nt 9083-9222 (other)
chain: not shown
notes: as for B4
Q: Does B12 bind [11]?
A: binds

B13: SID polypeptide of SEQ ID No 15, E2 (100%), HCV strain H77 nt 1871-1968 (other)
chain: PSPVVVGTTDRSGAPTYSWGANDTDVFVLNN
notes: as for B7
Q: Does B13 bind [12]?
A: binds

B14: SID polypeptide of SEQ ID No 26, NS4B (70%)/NS5A (28%), HCV strain H77 nt 6176-6291 (other)
chain: AILSSLTVTQLLRRLHQWISSECTTPCSGSWLRDIWD
notes: Intersection of yeast two-hybrid prey fragments; also called SID NS4B (70%)/NS5A (28%)
Q: Does B14 bind [13]?
A: binds

B15: SID polypeptide of SEQ ID No 27, NS3 (100%), HCV strain H77 nt 4784-4928 (other)
chain: VSRTQRRGRTGRGKPGIYRFVAPGERPSGMFDSSVLCECYDAGCAWY
notes: as for B1
Q: Does B15 bind [14]?
A: binds

B16: SID polypeptide of SEQ ID No 1, Core (100%), HCV strain H77 nt 446-600 (other)
chain: LLPRRGPRLGVRATRKTSERSQPRGRRQPIPKARRPEGRTWAQPGYPWPL
notes: as for B5
Q: Does B16 bind [15]?
A: binds
